Read-outs that look alike come from different tables or passages of the source. Marks after values point to notes of the source that are not given here.
Legend:
[1] = Blood concentration profile in rats (1)
Experimental: Blood Concentration Profile in Rats (1)
(§1) At 5 minutes, 1 hour, 6 hours, 24 hours, and 72 hours after administration, blood was collected through the jugular vein under isoflurane anesthesia successively in an amount of 0.3 mL each time, and the tacrolimus concentration in the collected blood was measured.

[2] = rats; cited from earlier work
[3] = rat, in vivo, iv, 5 mg/kg
Experimental: Blood Concentration Profile in Rats (1)
as §1

[4] = system: rat collagen-induced arthritis; experiment: Anti-inflammatory effect for rat collagen-induced arthritis (1); type: in vivo; conditions: 5 mg/kg, q7 d × 4, i.v., DA rats, average score 0-5, footnote: Score 29 d
Experimental: Anti-Inflammatory Effect for Rat Collagen-Induced Arthritis (1)
0.3 mg of bovine articular cartilage-derived type II collagen (immunological grade; Collagen Research Center, Ltd.) was intradermally administered on the dorsal side of nine-week old female DA rats (Japan SLC, Inc.), and thereby collagen-induced arthritis was induced in the rats. […] As a control, a non-administered group was provided. Determination of arthritis was made by scoring based on visual inspection.
From the time point after the sensitization with bovine articular cartilage-derived type II collagen, the progress of inflammation in the right hind limb and the left hind limb was monitored. It was determined that the onset of collagen-induced arthritis occurred when reddening was recognized in the toes of the right hind limb or the left hind limb. The extent of arthritis was evaluated in six stages according to the following scores from 0 to 5. […]

Question: What does the source list for `C=CC[C@@H]1/C=C(\C)C[C@H](C)C[C@H](OC)[C@H]2O[C@@](O)(C(=O)C(=O)N3CCCC[C@H]3C(=O)O[C@H](/C(C)=C/[C@@H]3CC[C@@H](O)[C@H](OC)C3)[C@H](C)[C@@H](O)CC1=O)[C@H](C)C[C@@H]2OC` [Tacrolimus, tacrolimus]?
Answer: Tmax ([1]; female SD rats, i.v. once 5 mg/kg, tacrolimus in blood): 5 min; concentration at 72 h ([1]; female, SD, rat, whole blood, iv, 5 mg/kg): 0.273 ng/mL; signs caused by intravenous administration [2]: slight respiratory distress, a decrease in locomotor activity, a prone position, stereotyped behavior

Question: With “Tacrolimus-Bonded Polyethylene Glycol-αβ-Polyaspartic Acid Block Copolymer [Comparative Example 1]” as the compound, how does the AUCinf. [3] read?
Answer: Its AUCinf. is 1050 ng·h/mL.

Question: And the Cmax [3]?
Answer: The Cmax was 280 ng/mL.

Question: What about the MRTinf. [3] of the same compound?
Answer: The MRTinf. was 11.6 h.

Question: And the “MRTinf. compared to tacrolimus” value [3]?
Answer: The value was “prolongation”.

Question: And the Tmax [3]?
Answer: Its Tmax is 5 min.

Question: And the T½ [3]?
Answer: The T½ was 9.57 h.

Question: And the “blood concentration half-life compared to tacrolimus” value [3]?
Answer: The value was “prolongation”.

Question: And the “Arthritis score (29 d)” value [4]?
Answer: The value was 2.6*.
